Reference: PMC6488583
pKd: −log10 of the molar value.

Experiments:
[1] = molecular target: full-length human fibronectin (UniProt P02751); experiment: SPR; Biacore T200; FN amine-coupled to a CM5 chip (1000 RU and 5000 RU); α^UpaB 0.8–100 µM injected; 25 °C, PBS-T (PBS pH 7.4, 0.05% Tween 20); steady-state affinity model; apparent
[2] = molecular target: full-length human fibronectin (UniProt P02751); experiment: ELISA; conditions: parent: est. 0.29; read off a plot

Sequence of full-length human fibronectin (P02751 32-2477): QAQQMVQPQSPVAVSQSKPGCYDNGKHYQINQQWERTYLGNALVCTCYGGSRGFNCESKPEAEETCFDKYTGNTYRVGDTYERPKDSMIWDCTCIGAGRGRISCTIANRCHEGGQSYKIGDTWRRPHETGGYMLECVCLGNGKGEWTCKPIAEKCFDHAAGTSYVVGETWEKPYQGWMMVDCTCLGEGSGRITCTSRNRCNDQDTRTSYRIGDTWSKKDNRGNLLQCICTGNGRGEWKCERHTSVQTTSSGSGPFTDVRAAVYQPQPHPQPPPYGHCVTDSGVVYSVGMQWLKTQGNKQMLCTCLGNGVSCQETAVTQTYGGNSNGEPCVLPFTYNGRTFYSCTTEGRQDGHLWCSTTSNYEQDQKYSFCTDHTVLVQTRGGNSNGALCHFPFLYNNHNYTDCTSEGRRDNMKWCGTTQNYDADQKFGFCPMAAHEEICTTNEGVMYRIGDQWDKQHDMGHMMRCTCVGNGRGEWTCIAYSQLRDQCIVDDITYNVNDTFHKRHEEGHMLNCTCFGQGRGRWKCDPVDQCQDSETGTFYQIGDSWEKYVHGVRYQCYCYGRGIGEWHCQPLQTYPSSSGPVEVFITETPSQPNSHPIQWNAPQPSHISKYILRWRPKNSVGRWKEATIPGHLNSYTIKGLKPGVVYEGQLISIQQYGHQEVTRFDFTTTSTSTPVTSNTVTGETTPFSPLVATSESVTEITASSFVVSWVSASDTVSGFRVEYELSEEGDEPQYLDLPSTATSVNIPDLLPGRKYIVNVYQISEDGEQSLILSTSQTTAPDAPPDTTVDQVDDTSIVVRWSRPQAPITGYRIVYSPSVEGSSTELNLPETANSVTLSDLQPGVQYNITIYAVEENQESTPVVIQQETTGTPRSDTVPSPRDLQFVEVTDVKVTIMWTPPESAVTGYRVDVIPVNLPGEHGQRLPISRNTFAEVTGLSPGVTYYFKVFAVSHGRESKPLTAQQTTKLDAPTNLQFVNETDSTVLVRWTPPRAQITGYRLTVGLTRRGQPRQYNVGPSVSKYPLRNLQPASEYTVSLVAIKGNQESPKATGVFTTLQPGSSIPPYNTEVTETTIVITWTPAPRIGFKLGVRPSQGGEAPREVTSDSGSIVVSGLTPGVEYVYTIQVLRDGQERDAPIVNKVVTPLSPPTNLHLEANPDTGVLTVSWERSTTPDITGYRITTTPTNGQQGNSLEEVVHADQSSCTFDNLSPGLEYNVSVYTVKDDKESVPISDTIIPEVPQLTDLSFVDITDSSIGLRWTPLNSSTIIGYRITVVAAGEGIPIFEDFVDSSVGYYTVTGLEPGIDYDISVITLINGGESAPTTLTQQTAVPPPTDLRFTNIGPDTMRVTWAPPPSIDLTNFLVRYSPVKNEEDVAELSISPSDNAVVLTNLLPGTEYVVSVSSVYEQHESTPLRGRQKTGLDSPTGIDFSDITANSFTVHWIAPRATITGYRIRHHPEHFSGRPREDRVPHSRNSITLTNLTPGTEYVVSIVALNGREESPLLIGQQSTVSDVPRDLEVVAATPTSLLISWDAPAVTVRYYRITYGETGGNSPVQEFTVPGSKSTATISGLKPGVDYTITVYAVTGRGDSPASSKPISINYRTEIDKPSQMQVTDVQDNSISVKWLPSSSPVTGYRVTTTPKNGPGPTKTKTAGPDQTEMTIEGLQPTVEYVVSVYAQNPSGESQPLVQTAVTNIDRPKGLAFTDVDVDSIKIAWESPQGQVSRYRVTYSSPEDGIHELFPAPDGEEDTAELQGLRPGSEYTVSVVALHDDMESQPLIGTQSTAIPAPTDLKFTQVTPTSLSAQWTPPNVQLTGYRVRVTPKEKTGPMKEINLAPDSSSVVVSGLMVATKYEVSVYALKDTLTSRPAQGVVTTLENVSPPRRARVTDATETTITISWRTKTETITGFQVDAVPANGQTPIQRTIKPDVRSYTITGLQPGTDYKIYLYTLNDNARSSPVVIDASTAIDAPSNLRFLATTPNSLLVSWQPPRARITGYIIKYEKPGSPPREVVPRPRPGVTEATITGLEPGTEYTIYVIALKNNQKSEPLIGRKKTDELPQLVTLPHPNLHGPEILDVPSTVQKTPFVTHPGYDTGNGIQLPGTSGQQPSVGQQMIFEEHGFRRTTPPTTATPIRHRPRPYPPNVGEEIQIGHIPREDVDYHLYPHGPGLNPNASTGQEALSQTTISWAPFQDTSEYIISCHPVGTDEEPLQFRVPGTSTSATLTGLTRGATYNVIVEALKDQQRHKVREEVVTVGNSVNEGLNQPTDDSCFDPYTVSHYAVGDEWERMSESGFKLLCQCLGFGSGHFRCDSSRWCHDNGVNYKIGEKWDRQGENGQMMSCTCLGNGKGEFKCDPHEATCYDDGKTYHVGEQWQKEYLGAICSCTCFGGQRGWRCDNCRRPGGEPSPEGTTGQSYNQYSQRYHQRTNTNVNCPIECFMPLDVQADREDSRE

Row | Substance | pKd [1] | response (Absorbance at 405 nm) [2]
1 | UpaB α-domain (α^UpaB), residues 38–500, from UPEC CFT073 (domain or fragment; other documents disagree on this pair) | 4.34 | 
2 | UpaB α-domain (α^UpaB), residues 38–500, from UPEC CFT073 E165A; N189A; Q197A; N200A; Q203A; K256A; N316A |  | 0.33
3 | UpaB α-domain (α^UpaB), residues 38–500, from UPEC CFT073 F101A; Y130A; Y187A; F195A; L201G; L202G; Y260A |  | 0.21
4 | UpaB α-domain (α^UpaB), residues 38–500, from UPEC CFT073 N116A; D119A; N146A; N175A; D217A; K245A; D246A; D281A; R310A; D336A |  | 0.039
5 | UpaB α-domain (α^UpaB), residues 38–500, from UPEC CFT073 E103A; D138A; E165A; E226A |  | 0.27
